From publication PMC9284427 (The Journal of Cell Biology, 2022)
Where two headings read alike, the source gives them in different places.

B2: MBP-tagged JIP3[1-108] (domain or fragment, human, UniProt Q9UPT6-1 1-108, looked up)
chain: MMEIQMDEGGGVVVYQDDYCSGSVMSERVSGLAGSIYREFERLIHCYDEEVVKELMPLVVNVLENLDSVLSENQEHEVELELLREDNEQLLTQYEREKALRRQAEEKF
B6: RILP[1-106] (domain or fragment, human, UniProt Q96NA2-1 1-106, looked up)
chain: MEPRRAAPGVPGWGSREAAGSASAAELVYHLAGALGTELQDLARRFGPEAAAGLVPLVVRALELLEQAAVGPAPDSLQVSAQPAEQELRRLREENERLRRELRAGP
B7: GST::DLIC1[388-523] (domain or fragment, human, UniProt Q9Y6G9 388-523, looked up)
chain: PTAAGRPVDASPRVPGGSPRTPNRSVSSNVASVSPIPAGSKKIDPNMKAGATSEGVLANFFNSLLSKKTGSPGGPGVSGGSPAGGAGGGSSGLPPSTKKSGQKPVLDVHAELDRITRKPVTVSPTTPTSPTEGEAS
B8: MBP::UNC-16[1-120] (domain or fragment, C. elegans, UniProt P34609-1 1-120, looked up)
chain: MACNLSPVNEMADSITSSTPSEIVYGGPGSPDEHRTMSDKVQTMASAIYRELETMIKVHGEDGVKTLMPLVVNVLEALDLAYLERDEQTAELEMLKEDNEQLQTQYEREKALRKQTEQKY

Legend:
[1] = target: T1, GST::KIF5C[807-956] (mouse, UniProt P28738 807-956); assay: pull-down
[2] = target: DLIC1[388-523] (human, UniProt Q9Y6G9 388-523); assay: ITC
[3] = target: the molecule itself; assay: AUC
[4] = target: T1, GST::KIF5C[807-956]; assay: pull-down; remark: listed apart in the source
[5] = target: T2, mouse JIP3[186-505] (mouse, UniProt Q9ESN9-5 186-505); assay: pull-down
T2 sequence (looked up): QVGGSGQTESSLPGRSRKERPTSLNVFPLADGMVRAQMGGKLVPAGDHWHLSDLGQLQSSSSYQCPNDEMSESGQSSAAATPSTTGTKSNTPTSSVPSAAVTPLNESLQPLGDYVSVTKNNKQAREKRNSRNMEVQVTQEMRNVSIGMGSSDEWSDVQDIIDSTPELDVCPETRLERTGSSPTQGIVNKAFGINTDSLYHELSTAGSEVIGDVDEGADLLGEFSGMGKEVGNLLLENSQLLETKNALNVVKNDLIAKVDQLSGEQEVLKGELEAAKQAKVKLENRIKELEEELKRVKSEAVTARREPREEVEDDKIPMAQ

[6] = target: B2; assay: pull-down
[7] = target: B7; assay: pull-down
[8] = target: B6; assay: SEC
[9] = target: T3, full-length RILP (human, UniProt Q96NA2-1 1-401); assay: pull-down
T3 sequence (looked up): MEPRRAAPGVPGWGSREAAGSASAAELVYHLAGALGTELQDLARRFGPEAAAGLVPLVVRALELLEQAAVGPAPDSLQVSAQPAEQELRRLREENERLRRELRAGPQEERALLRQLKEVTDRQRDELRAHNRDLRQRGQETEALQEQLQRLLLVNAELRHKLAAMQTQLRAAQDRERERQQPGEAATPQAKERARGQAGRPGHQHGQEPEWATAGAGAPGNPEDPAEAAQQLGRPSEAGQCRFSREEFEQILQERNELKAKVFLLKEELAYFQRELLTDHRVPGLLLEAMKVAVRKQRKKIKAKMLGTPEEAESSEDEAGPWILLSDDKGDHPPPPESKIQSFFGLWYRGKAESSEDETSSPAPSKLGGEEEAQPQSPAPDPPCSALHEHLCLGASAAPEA

[10] = target: UNC-116[675-815] (C. elegans, UniProt P34540 675-815); assay: pull-down
[11] = target: B8; assay: pull-down

T1 sequence (P28738 807-956): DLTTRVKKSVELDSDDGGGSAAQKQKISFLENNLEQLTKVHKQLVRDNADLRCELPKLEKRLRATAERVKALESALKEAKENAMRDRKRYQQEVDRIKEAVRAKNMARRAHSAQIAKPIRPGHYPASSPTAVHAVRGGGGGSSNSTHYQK
Sequence of UNC-116[675-815] (P34540 675-815): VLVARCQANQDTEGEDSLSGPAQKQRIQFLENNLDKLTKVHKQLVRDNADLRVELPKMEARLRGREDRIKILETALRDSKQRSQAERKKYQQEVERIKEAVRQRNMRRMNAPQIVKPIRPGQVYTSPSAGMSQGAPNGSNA

B1: JIP3[1-108] (domain or fragment, human, UniProt Q9UPT6-1 1-108, looked up)
chain: MMEIQMDEGGGVVVYQDDYCSGSVMSERVSGLAGSIYREFERLIHCYDEEVVKELMPLVVNVLENLDSVLSENQEHEVELELLREDNEQLLTQYEREKALRRQAEEKF
With B1 the binding result [1] was “binds”, the Kd [2] was ~1000 nM and the “stoichiometry N” value [2] was 2 DLIC1-C molecules per RH1 dimer. For the same binder, the “stoichiometry N” value [3] was 2.

B2: binds [4].

B3: JIP3[1-108] V60Q (domain or fragment, human, UniProt Q9UPT6-1 1-108, looked up)
chain: MMEIQMDEGGGVVVYQDDYCSGSVMSERVSGLAGSIYREFERLIHCYDEEVVKELMPLVQNVLENLDSVLSENQEHEVELELLREDNEQLLTQYEREKALRRQAEEKF
In the case of B3, the binding result [1] is reported as “binds” and the “stoichiometry N” value [3] is reported as 2.

B4: GST-tagged KLC1[185-501] (domain or fragment, human, UniProt Q07866-1 185-501, looked up)
chain: DDPGQGIQQQHSSAAAAAQQGGYEIPARLRTLHNLVIQYASQGRYEVAVPLCKQALEDLEKTSGHDHPDVATMLNILALVYRDQNKYKDAANLLNDALAIREKTLGKDHPAVAATLNNLAVLYGKRGKYKEAEPLCKRALEIREKVLGKDHPDVAKQLNNLALLCQNQGKYEEVEYYYQRALEIYQTKLGPDDPNVAKTKNNLASCYLKQGKFKQAETLYKEILTRAHEREFGSVDDENKPIWMHAEEREECKGKQKDGTSFGEYGGWYKACKVDSPTVTTTLKNLGALYRRQGKFEAAETLEEAAMRSRKQGLDNV
B4: binds [5].

B5: JIP4[1-103] (domain or fragment, human, UniProt O60271-1 1-103, looked up)
chain: MELEDGVVYQEEPGGSGAVMSERVSGLAGSIYREFERLIGRYDEEVVKELMPLVVAVLENLDSVFAQDQEHQVELELLRDDNEQLITQYEREKALRKHAEEKF
For B5, the Kd [2] was ~4000 nM, the “stoichiometry N” value [2] was 2 DLIC1-C molecules per RH1 dimer and the “stoichiometry N” value [3] was 2.

NMKAGATSEGVLANFFNSLLSKKTGS (peptide, UniProt Q9Y6G9 433-458, looked up) [DLIC-C helix 1 peptide (residues 433-458)]: binds [6].

B6: binds [7].

SEGVLANFFNSLLSKK (domain or fragment, human) [DLIC1[440-455]]: binds [8].

B7: binds [9].

B8: binds [10].

B9: MBP::UNC-16[1-120] V72Q (domain or fragment, C. elegans, UniProt P34609-1 1-120, looked up)
chain: MACNLSPVNEMADSITSSTPSEIVYGGPGSPDEHRTMSDKVQTMASAIYRELETMIKVHGEDGVKTLMPLVQNVLEALDLAYLERDEQTAELEMLKEDNEQLQTQYEREKALRKQTEQKY
B9: binds [10].

B10: GST::DLI-1[369-442] (domain or fragment, C. elegans, UniProt G5ED34 369-442, looked up)
chain: TTAAPKPRTMQEEPTDKDSPLANFFSNLLNKDKPSKVSSPSTVSQPMDAAATQAQLDRLLKSAQSPKPQPRDSD
B10: binds [11].
